Measured values: patent publication US20050191626, “Method for forming a stable complex comprising a transcription product and translation product of a dna encoding a desired polypeptide, a nucleic acid construct used for the method, a complex formed by the method, and screening of a functional protein and mrna or dna encoding the protein using the …” (published 2005)

T1: DHFR-(RE)2 (DHFR fused to two tandem Tat-derived RE peptides) (UniProt P04608)
T1 sequence: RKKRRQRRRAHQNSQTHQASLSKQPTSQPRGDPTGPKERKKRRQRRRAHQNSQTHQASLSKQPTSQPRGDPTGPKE

T2: DHFR-(RE)3 (DHFR fused to three tandem Tat-derived RE peptides) (UniProt P04608)
T2 sequence: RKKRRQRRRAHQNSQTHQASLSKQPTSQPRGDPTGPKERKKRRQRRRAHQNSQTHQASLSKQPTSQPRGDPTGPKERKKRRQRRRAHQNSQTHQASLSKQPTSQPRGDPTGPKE

T3: DHFR-(RE)1 (DHFR fused to one HIV Tat-derived RE peptide) (UniProt P04608)
T3 sequence: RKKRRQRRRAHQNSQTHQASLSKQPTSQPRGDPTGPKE

B1: (Apt)3 three tandem Tat aptamers via A6 linkers (ssRNA)
RNA: AAAAAACGAAGCUUGAUCCCGUUUGCCGGUCGAUCGCUUCGAAAAAACGAAGCUUGAUCCCGUUUGCCGGUCGAUCGCUUCGAAAAAACGAAGCUUGAUCCCGUUUGCCGGUCGAUCGCUUCG
B2: (Apt)2 two tandem Tat aptamers via A6 linker (ssRNA)
RNA: AAAAAACGAAGCUUGAUCCCGUUUGCCGGUCGAUCGCUUCGAAAAAACGAAGCUUGAUCCCGUUUGCCGGUCGAUCGCUUCG

Legend:
[1] = biological target: T1, DHFR-(RE)2 (DHFR fused to two tandem Tat-derived RE peptides); test: EMSA; settings: apparent Kd; 10 mM Tris-HCl pH 8.0, 70 mM NaCl, 2 mM EDTA, 0.1% NP-40, 40 nM tRNA, 30 C
[2] = biological target: T2, DHFR-(RE)3 (DHFR fused to three tandem Tat-derived RE peptides); test: EMSA; settings: apparent Kd; 10 mM Tris-HCl pH 8.0, 70 mM NaCl, 2 mM EDTA, 0.1% NP-40, 40 nM tRNA, 30 C
[3] = biological target: T3, DHFR-(RE)1 (DHFR fused to one HIV Tat-derived RE peptide); test: EMSA; settings: apparent Kd; 10 mM Tris-HCl pH 8.0, 70 mM NaCl, 2 mM EDTA, 0.1% NP-40, 40 nM tRNA, 30 C
[4] = biological target: dihydrofolate reductase (DHFR), wild type (UniProt P0ABQ4 P0ABQ4:1-159); test: EMSA; no mobility change with increasing wild-type DHFR; settings: tags: poly-His (pET30a); label: 5'-32P

| Molecule | binding result [4] | also measured |
| --- | --- | --- |
| AAAAAACGAAGCUUGAUCCCGUUUGCCGGUCGAUCGCUUCGAAAAAACGAAGCUUGAUCCCGUUUGCCGGUCGAUCGCUUCG [(Apt)2 two tandem Tat aptamers via A6 linker] |  | Kd [1]: < 0.2 nM |
| AAAAAACGAAGCUUGAUCCCGUUUGCCGGUCGAUCGCUUCGAAAAAACGAAGCUUGAUCCCGUUUGCCGGUCGAUCGCUUCGAAAAAACGAAGCUUGAUCCCGUUUGCCGGUCGAUCGCUUCG [(Apt)3 three tandem Tat aptamers via A6 linkers] |  | Kd [2]: < 0.016 nM |
| AAAAAACGAAGCUUGAUCCCGUUUGCCGGUCGAUCGCUUCG [(Apt)1 Tat aptamer] |  | Kd [3]: < 24 nM |
| B1 | no binding |  |
| B2 | no binding |  |
| AAAAAACGAAGCUUGAUCCCGUUUGCCGGUCGAUCGCUUCG (ssRNA) [(Apt)1 Tat aptamer] | no binding |  |
